Patent publication US11306156
One block for each substance: values may come before it.

Experiments:
[1] = molecular target: D3H44 Fab heavy chain L143E_K145T, C-terminal ABD2-His6 tag; test: LCCA: heavy chain co-expressed with two light chains, SPR detection of light chain tags; L1:L2 DNA 1:9, normalized to 1:1; competing light chain m11
[2] = molecular target: D3H44 Fab heavy chain S186K, C-terminal ABD2-His6 tag; test: as above
[3] = molecular target: D3H44 Fab heavy chain L143E_K145T, C-terminal ABD2-His6 tag; test: LCCA: heavy chain co-expressed with two light chains, SPR detection of light chain tags; L1:L2 DNA 1:3, normalized to 1:1; competing light chain m11
[4] = molecular target: D3H44 Fab heavy chain S186K, C-terminal ABD2-His6 tag; test: as above
[5] = molecular target: D3H44 Fab heavy chain L143E_K145T, C-terminal ABD2-His6 tag; test: LCCA: heavy chain co-expressed with two light chains, SPR detection of light chain tags; L1:L2 DNA 1:3, normalized to 1:1; competing light chain m18
[6] = molecular target: D3H44 Fab heavy chain L143R, C-terminal ABD2-His6 tag; test: as above
[7] = molecular target: D3H44 Fab heavy chain L143R, C-terminal ABD2-His6 tag; test: LCCA: heavy chain co-expressed with two light chains, SPR detection of light chain tags; L1:L2 DNA 1:9, normalized to 1:1; competing light chain m11
[8] = molecular target: D3H44 Fab heavy chain L143E_K145T_S188L, C-terminal ABD2-His6 tag; test: as above
[9] = molecular target: D3H44 Fab heavy chain L143R, C-terminal ABD2-His6 tag; test: LCCA: heavy chain co-expressed with two light chains, SPR detection of light chain tags; L1:L2 DNA 1:3, normalized to 1:1; competing light chain m11
[10] = molecular target: D3H44 Fab heavy chain L143E_K145T_S188L, C-terminal ABD2-His6 tag; test: as above
[11] = molecular target: tissue factor (TF) antigen (UniProt P13726); test: SPR, Fab captured by anti-penta-His, TF injected, 1:1 fit; estimated (*) from a Fab that differs only in the L chain tag
[12] = molecular target: tissue factor (TF) antigen (UniProt P13726); test: SPR, Fab captured by anti-penta-His, TF injected, 1:1 fit
[13] = molecular target: tissue factor (TF) antigen (UniProt P13726); test: SPR; log change of median KD against wild-type D3H44 Fab; estimated (*) from a Fab that differs only in the L chain tag
[14] = molecular target: tissue factor (TF) antigen (UniProt P13726); test: SPR; log change of median KD against wild-type D3H44 Fab
[15] = molecular target: D3H44 Fab heavy chain L143E_K145T, C-terminal ABD2-His6 tag; test: LCCA: heavy chain co-expressed with two light chains, SPR detection of light chain tags; L1:L2 DNA 1:3, normalized to 1:1; competing light chain m19
[16] = molecular target: D3H44 Fab heavy chain L143R, C-terminal ABD2-His6 tag; test: as above
[17] = molecular target: D3H44 Fab heavy chain L143E_K145T_Q179E, ABD2-His6 tagged; test: LCCA, SPR of light chain tags; L1:L2 DNA 1:3 normalized to 1:1; competing light chain m21
[18] = molecular target: D3H44 Fab heavy chain S186K, ABD2-His6 tagged; test: as above
[19] = molecular target: D3H44 Fab heavy chain Q179R, ABD2-His6 tagged; test: as above
[20] = molecular target: D3H44 Fab heavy chain Q179K, ABD2-His6 tagged; test: LCCA, SPR of light chain tags; L1:L2 DNA 1:3 normalized to 1:1; competing light chain m17
[21] = molecular target: D3H44 Fab heavy chain L143E_K145T_Q179E, ABD2-His6 tagged; test: as above
[22] = molecular target: D3H44 Fab heavy chain S186R, ABD2-His6 tagged; test: as above
[23] = molecular target: D3H44 Fab heavy chain S186K, ABD2-His6 tagged; test: as above
[24] = molecular target: D3H44 Fab heavy chain Q179R, ABD2-His6 tagged; test: as above
[25] = molecular target: D3H44 Fab heavy chain Q179K, ABD2-His6 tagged; test: LCCA, SPR of light chain tags; L1:L2 DNA 1:9 normalized to 1:1; competing light chain m17
[26] = molecular target: D3H44 Fab heavy chain L143E_K145T_Q179E, ABD2-His6 tagged; test: as above
[27] = molecular target: D3H44 Fab heavy chain S186R, ABD2-His6 tagged; test: as above
[28] = molecular target: D3H44 Fab heavy chain S186K, ABD2-His6 tagged; test: as above
[29] = molecular target: D3H44 Fab heavy chain Q179R, ABD2-His6 tagged; test: as above
[30] = molecular target: D3H44 Fab heavy chain L143E_K145T_Q179E, ABD2-His6 tagged; test: LCCA, SPR of light chain tags; L1:L2 DNA 1:9 normalized to 1:1; competing light chain m21
[31] = molecular target: D3H44 Fab heavy chain S186K, ABD2-His6 tagged; test: as above
[32] = molecular target: D3H44 Fab heavy chain Q179R, ABD2-His6 tagged; test: as above
[33] = molecular target: D3H44 Fab heavy chain L143E_K145T_Q179E, ABD2-His6 tagged; test: LCCA, SPR of light chain tags; L1:L2 DNA 1:3 normalized to 1:1; competing light chain m24
[34] = molecular target: D3H44 Fab heavy chain S186K, ABD2-His6 tagged; test: as above
[35] = molecular target: D3H44 Fab heavy chain Q179K, ABD2-His6 tagged; test: LCCA, SPR of light chain tags; L1:L2 DNA 1:9 normalized to 1:1; competing light chain m22
[36] = molecular target: D3H44 Fab heavy chain L143E_K145T_Q179E, ABD2-His6 tagged; test: as above
[37] = molecular target: D3H44 Fab heavy chain L143E_K145T_Q179E, ABD2-His6 tagged; test: LCCA, SPR of light chain tags; L1:L2 DNA 1:3 normalized to 1:1; competing light chain m19
[38] = molecular target: D3H44 Fab heavy chain S186R, ABD2-His6 tagged; test: as above
[39] = molecular target: D3H44 Fab heavy chain L143R, ABD2-His6 tagged; test: LCCA, SPR of light chain tags; L1:L2 DNA 1:3 normalized to 1:1; competing light chain m20
[40] = molecular target: D3H44 Fab heavy chain L143E_K145T_Q179E, ABD2-His6 tagged; test: as above
[41] = molecular target: D3H44 Fab heavy chain L143E_K145T_Q179E, ABD2-His6 tagged; test: LCCA, SPR of light chain tags; L1:L2 DNA 1:9 normalized to 1:1; competing light chain m24
[42] = molecular target: D3H44 Fab heavy chain S186K, ABD2-His6 tagged; test: as above
[43] = molecular target: D3H44 Fab heavy chain L143R, ABD2-His6 tagged; test: LCCA, SPR of light chain tags; L1:L2 DNA 1:9 normalized to 1:1; competing light chain m20
[44] = molecular target: D3H44 Fab heavy chain L143E_K145T_Q179E, ABD2-His6 tagged; test: as above
[45] = molecular target: D3H44 Fab heavy chain Q179K, ABD2-His6 tagged; test: LCCA, SPR of light chain tags; L1:L2 DNA 1:3 normalized to 1:1; competing light chain m22
[46] = molecular target: D3H44 Fab heavy chain L143E_K145T_Q179E, ABD2-His6 tagged; test: as above
[47] = molecular target: D3H44 Fab heavy chain Q179R, ABD2-His6 tagged; test: as above

H1L1:H1L2 normalized median ratio [1]: 19%
H2L2:H2L1 normalized median ratio [2]: 90%
H1L1:H1L2 normalized median ratio [3]: 18%
H2L2:H2L1 normalized median ratio [4]: 91%
Substance: D3H44 light chain Q124E_T178E_T180E, N-terminal HA or FLAG tag

Kd [11]: 0.28 nM
Kd [12]: 0.28 nM
Change in median values of KD of h1l1 Fab heterodimer compared to wild type (-(log(KD design)-log(KD wt))) [13]: -0.25 log units
Change in median values of KD of h1l1 Fab heterodimer compared to wild type (-(log(KD design)-log(KD wt))) [14]: -0.25 log units
Substance: H1L1 Fab heterodimer of LCCA sets 9589, 9587, 9588 and 9585 (D3H44 Fab, H1 L143E_K145T, L1 Q124R)

H1L1:H1L2 normalized median ratio [15]: 85%
H1L1:H1L2 normalized median scalar value ln(r1/f1) [15]: 1.77
H2L2:H2L1 normalized median ratio [16]: 12%
Substance: D3H44 light chain Q124R, N-terminal HA or FLAG tag

Further lines, the substance ahead of its results:

Substance: D3H44 light chain Q124E_V133E_Q160M, N-terminal HA or FLAG tag
H1L1:H1L2 normalized median ratio [5]: 15%
H2L2:H2L1 normalized median ratio [6]: 88%

Substance: D3H44 light chain Q124E_V133E_S176L, N-terminal HA or FLAG tag
H2L2:H2L1 normalized median ratio [7]: 79%
H1L1:H1L2 normalized median ratio [8]: 14%
H2L2:H2L1 normalized median ratio [9]: 94%
H1L1:H1L2 normalized median ratio [10]: 26%

Substance: D3H44 light chain Q124R_T178R, HA or FLAG tagged
H1L1:H1L2 normalized median ratio [17]: 92%
H1L1:H1L2 normalized median scalar value ln(r1/f1) [17]: 2.46
H2L2:H2L1 normalized median ratio [18]: 5%
H2L2:H2L1 normalized median ratio [19]: 6%
H2L2:H2L1 normalized median ratio [20]: 5%
H1L1:H1L2 normalized median ratio [21]: 91%
H1L1:H1L2 normalized median scalar value ln(r1/f1) [21]: 2.29
H2L2:H2L1 normalized median ratio [22]: 6%
H2L2:H2L1 normalized median ratio [23]: 2%
H2L2:H2L1 normalized median ratio [24]: 5%
H2L2:H2L1 normalized median ratio [25]: 16%
H1L1:H1L2 normalized median ratio [26]: 90%
H1L1:H1L2 normalized median scalar value ln(r1/f1) [26]: 2.18
H2L2:H2L1 normalized median ratio [27]: 13%
H2L2:H2L1 normalized median ratio [28]: 10%
H2L2:H2L1 normalized median ratio [29]: 14%
H1L1:H1L2 normalized median ratio [30]: 92%
H1L1:H1L2 normalized median scalar value ln(r1/f1) [30]: 2.45
H2L2:H2L1 normalized median ratio [31]: 11%
H2L2:H2L1 normalized median ratio [32]: 10%
H1L1:H1L2 normalized median ratio [33]: 91%
H1L1:H1L2 normalized median scalar value ln(r1/f1) [33]: 2.27
H2L2:H2L1 normalized median ratio [34]: 6%
H2L2:H2L1 normalized median ratio [35]: 11%
H1L1:H1L2 normalized median ratio [36]: 85%
H1L1:H1L2 normalized median scalar value ln(r1/f1) [36]: 1.77
H1L1:H1L2 normalized median ratio [37]: 85%
H1L1:H1L2 normalized median scalar value ln(r1/f1) [37]: 1.75
H2L2:H2L1 normalized median ratio [38]: 4%
H2L2:H2L1 normalized median ratio [39]: 5%
H1L1:H1L2 normalized median ratio [40]: 93%
H1L1:H1L2 normalized median scalar value ln(r1/f1) [40]: 2.62
H1L1:H1L2 normalized median ratio [41]: 78%
H1L1:H1L2 normalized median scalar value ln(r1/f1) [41]: 1.29
H2L2:H2L1 normalized median ratio [42]: 6%
H2L2:H2L1 normalized median ratio [43]: 11%
H1L1:H1L2 normalized median ratio [44]: 92%
H1L1:H1L2 normalized median scalar value ln(r1/f1) [44]: 2.45
H2L2:H2L1 normalized median ratio [45]: 4%
H1L1:H1L2 normalized median ratio [46]: 86%
H1L1:H1L2 normalized median scalar value ln(r1/f1) [46]: 1.83
H2L2:H2L1 normalized median ratio [47]: 3%
